Experimental data: the DeepSol protein solubility set

assay: soluble on expression in E. coli; label from the status in PepcDB or PDB records

Which “soluble on expression in E. coli” value does the source give for “MSLTDAETAVMPDRTNTSRDHAKRYVRHFLADFAKLDQEYPRTYPRMIVRGEGAYVIDEEGRRILDAGSHLGACQIGHGHPEVADRIHQQVRNIEFIALDAGISHVYAAALGERLAKMVLCDDPVFSFTNSGSESNELAFKIARQYHRRRGQPGRVKIFSRNGSYHGSTLATSAATGAAPFKEGFGPLPEGFIQGAQPSPGRCGHCGFNDACSLACLDDFERLIMAEGSETVAAVIAEPIAIPQAVKVPPPDYFVRLRKFCDDHGILLIIDEVVCGFGRTGRMFGAEHFGVHGDIVTFAKGLTSGYVPMGAVAVARHVEEVFKNAPLLHLNTYAGHPVACAAAMAVLDIMERERLVLHSARMEPILRRELQRLQNAVARVRYLSVIGLLSSVIVDISDRPDPDAVIRRVRNIAYDNGLLARVARDGALLSVHFYPPLVVAEQDIVAGVRALEIALRMIEGHHHHHH” here?
The value was “not soluble”.

Which “soluble on expression in E. coli” value does the source give for “MGSDKIHHHHHHMATRSATQPVSPQVARLARGLKLGANSMLVTLFGDVVAPRPQALWLGSLIRLAEPFGINDRLVRTATFRLTSDDWLNATRIGRRSYYGLSEAGLQRCLHAGKRIYAGDAPDWDGRWTLALVRGDARATIRQRLKRELLWEGFGAIAPGVYAHPNADANSLGEIIRAAHAQDFVAVMDATSLETFSIRPLQTLMHQTFKLGDVASAWQALLRRFSPVLADAHAMTPADAFFVRTLLLHEYRRVLLRDPNLPEQLLPTDWPGRTARDLCRDMYAALLDASEDYLREVVEVSEGTLANATRLLRRRFAMA” here?
The value was “not soluble”.

With “MSKTLDGEPIECEIIDSLKLVNNTMDKIISRGYEKSAIYTPKAYGSVYRLSETNLLSKNEFKDNLLITFMAKKFKKLIRSEKPDLIIGTHPFPMIALSTLKKNFNLHNNESNAYTEHFYKHYTNTINVPPLISVLTDYTTHSTWIQNEIDYYIVGHEYVKELLVFDGVEPSKIRTFGIPLEHHHHHH” as the sequence, how does the “soluble on expression in E. coli” value read?
The value was “not soluble”.

Which “soluble on expression in E. coli” value does the source give for “MAIPGNMWIYDDGGALIKGGCDVADREFSIEFKGFHHNLSIPTDHATGKPTGTRQHSPMIIVKEFDYSSPYLYKAVATGQNLKSAEIKWYKISDAGQEVEYFNMLLEGVRIVSISPTMASPEDKNNNHLESVELRYEKITWKHCDGNIIFTDAWNERQTA” here?
Its value is “not soluble”.

For “MKKNLLLLLCLFCLVNVCHAKAKDTFTVFQLNLWHGCTKVPNGDQGIIDVLDQMDADVVFLCEIRDGKQFIPHVIEELEKRGKHYYGETFDLAIGVLSKFKPDSWTKCCIVPGDEGRAMVKMVATIEGQPVSFYSCHLDYRHYQCYMPRGYNGTTWKKMDKPITDEEEVLKANRQSFRDETIRAFIQEVQSDIQQGRPIIMGGDFNEPSHLDWQADTKDLWDHNGAIIHWDCSMMLSKAGFKDAYREKFPNTVRYPGFTFPAGNKLAEEAKLEKLAWAPEADERDRIDFIYYYPLESMLSMKDSKLVGPSETVVRGKITENDSKDKILTPSCIWPSDHKGNLATFKIRKKRLEHHHHHH”, which “soluble on expression in E. coli” value is on record?
Its value is “not soluble”.

With “MGSDKIHHHHHHMKEVTLGRGMIPGVVPSLAFRRDVSSIVAKRNPSPSIRASFPVRDLFHALARSAGDSDTHHAARKFLDERLVEVAHLESDLPHDIAALPQWLEQRCARVRSDYRAYLADRHAGQQARYFSCRAHALHFLQSMAPSRMVEGAWLYGFLKHWREARFAPMCRVYLRNLGDGDPGCNQVSLYQKLLDRNGCADWHGLDDQYYVQGAIRLALGHHVDHYLPEIIGFNLGYDQVSLPMLIAAYELSEQGVLPHYFTLHVTEDDAGASSAMKLLGSLLDTADSAKAREMLLHRVNNGYKLHRLGLDIPGIVASFDLQKAFLAVMQPCAAYLERVYRIDCMERGIRGRWTDSLPLPLLLQQLCNEGWMHPDEKGKTRLWQVLERGNLLPAPGYPQQVVVDWSARSDEYGKRLPHTDVADLVPVSPPPARRPEEAEEHWADFNESGSQADLMEHMIRLLSPLAHHTQEGLKAARIYKSILEKGSELYSQHSALFLWHGRV” as the sequence, how does the “soluble on expression in E. coli” value read?
The value was “not soluble”.

With “DLKDPIKISIPRYVLCGQGKDAHFEFEVKITVLDETWTVFRRYSRFREMHKTLKLKYAELAALEFPPKKLFGNKDERVIAERRSHLEKYLRDFFSVMLQSATSPLHINKVGLTLSKHTICEFSPFFKKGVFDYS” as the sequence, how does the “soluble on expression in E. coli” value read?
The value was “soluble”.

With “MDSNEIIKRVRERVYREVKKKYTRDDLDTRIQDVLYYRSETYMKLVSFANGKRIKKLADPRKFEKFMDTKGVKIVAEVLDGLNNQPKMQAMEYEQKVLTKVRQWYQKKNHPELVDLEEEAFEQLVEKNIIYKKMKKRLYEEQDNQGFVYSDNFDMQLIRDSCDIEEALYLDITLGDY” as the sequence, how does the “soluble on expression in E. coli” value read?
Its value is “not soluble”.

With “MAHHHHHHMGSKHPRGSTSAPAHEEEQQAHVDTEHHTEPPSFTAGPEVAEMQVTVTPTMPPTSMEQASMTVSGEGPSTLAVPKQQHLRHKSFTMTEVQQLISVNPDRTLVIIRDKVYDVTTFLASHPGGKSALRRNNGKDVTDAFFSMHSAMAVRKLPDFLIGELAPPESTSAAGEETPTAALVPARLRMADITKALSEDLNRIILILFSDAYDVTSMRDKHPGGLSVLVNNNGRECGDTFMRIHGLLAKEMVKQFYLGPVEGLAQGRSPLRPAVAAEVESTAITPAGPKAQSTRILEIESVNSTVTIRYFTFSCPKPLYMIPGGHIKLYSNLHEKESRFYTPFKTGVSSFTICMKHYPNGRTSGYLFDLKEGDEVFFDGPLPPSWQLNTDAAVQRAAPEERHVVLVGGGTGIAPLYSMSSNALETQFSSVTLVCSVRTPDDLILATELRQLANRYSTALPIQKHTLRIVLLFSRASPQDISVESTSFASHVLCGGRLTAESFKGTEIHPAQAVVVCGPPTFNDAVAAAVLEAGICTATQVHHL” as the sequence, how does the “soluble on expression in E. coli” value read?
The value was “not soluble”.

For “GSSGSSGMPMTLGYWDIRGLAHAIRLFLEYTDSSYEEKRYTMGDAPDYDQSQWLNEKFKLGLDFPNLPYLIDGSHKITQSNAILRYLGRKHNLCGETEEERIRVDILENQLMDNRMVLARLCYNADFEKLKPGYLEQLPGMMRLYSEFLGKRPWFAGDKITFVDFIAYDVLERNQVFEAKCLDAFPNLKDFIARFEGLKKISDYMKTSRFLPRPMFTKMATWGSNSGPSSG”, which “soluble on expression in E. coli” value is on record?
The value was “soluble”.

Which “soluble on expression in E. coli” value does the source give for “MGHHHHHHSHPPCRPCRYKKYVFLDPLAGAVTKTHVMLGAETEEKLFDAPLSISKREQLEQQVGGAGQRWRQVQWPRALPELLSSQGCWALYSTHGRCTQGLVGCPCRSLSPLTCPCLILQVPENYFYVPDLGQVPEIDVPSYLPDLPGIANDLMYIADLGPGIAPSAPGTIPELPTFHTEVAEPLKTYKMGY” here?
Its value is “not soluble”.

For “MKLSEYGLQLQEKQKLRHMYGVNERQFRKTFEEAGKMPGKHGENFMILLESRLDNLVYRLGLARTRRQARQLVTHGHILVDGSRVNIPSYRVKPGQTIAVREKSRNLQVIKEALEANNYIPDYLSFDPEKMEGTYTRLPERSELPAEINEALIVEFYSR”, which “soluble on expression in E. coli” value is on record?
Its value is “soluble”.

For “MAHHHHHHMGLKRLAKAAKITSKHMLLLNRREPYKPVTSDRVMIENRRRLEDFEAKNAEGIVFVPDTALPPWQKSIATNLKQQATQMNFRGFRVRVADKQDEPGFPTHFR”, which “soluble on expression in E. coli” value is on record?
The value was “soluble”.

With “MKVAIIGATGYGGIELIRLLEQHPYFSIASLHSFSQVGECITNVYPHFQNVLVHTLQEIDVEEIEKEAEIVFLATPAGVSAELTPKLLAVGLKVIDLSGDFRMKDPFIYEQWYKRAAAKEGVLREAVYGLSEWKRSEIQKANLIANPGCFATAALLAILPLVRSGIIEEDSIIIDAKSGVSGAGKTPTTMTHFPELYDNLRIYKVNEHQHIPEIEQMLAEWNRETKPITFSTHLIPISRGIMVTLYAKVKREMEIEQLQQLYEEAYEQSAFIRIRMQGEFPSPKEVRGSNYCDMGIAYDERTGRVTIVSVIDNMMKGAAGQAIQNANIVAGLEETTGLQHMPLYL” as the sequence, how does the “soluble on expression in E. coli” value read?
Its value is “not soluble”.

Which “soluble on expression in E. coli” value does the source give for “MIVRSYLYEKLNGDVRCKTCWHRCIIKEGKTGICRVRKNEGGELLVLNYGMASSIALDPIEKKPLNNFKPGSKVLSFGSVSCNFRCLHCQNFEIAFADLDYSYLREIDPDTVLRMCIDRRADGVAWTYNEPAIWHEFALDSSKLVKESGYYVVYVTNGYMTPEAVDQFEGVLDAANVDVKAFSEDFYKKICKAKLEHVLETVEYLHRKGVFVELTYLIIPGENDSREELRDFCRWVADLSPKIPVHFSRFHPDYKMLDKPPTPVEKIEEAVEIAKKEGIEYVYAGNVWGHRYENTYCPNCGELLIEREGFYVYNINLVRDNPPKCPNCGYAQNIIL” here?
Its value is “not soluble”.

For “MVVVMNPEQIYGVSNIKSHIPVMLDIEESNYDAWRELFLTHCLSFDVMGHIDGTLLPTNANDVNWQKRDGIVKLSLYGTLTPKQFQGSFVTSSTSRDIWLRIKNQFRNNKDARALRLDSELRTKDIGDMRVADYYRKMKKLADSLRNVDVPVTDRNLVMYVLNGLNPKFDNIINVIKHRQPFPSFDDAATMLQEEEDRLKRAIKPNPTHVDHSSSSTVLACSEAPPVTNFQRSGGNQMGYRGRGRGNNIFRGRGGRFSYYNMPTFNSWNRPPFYQNSYQMWNHPWGYPPYVNTNGGNGLGLLGPRPAY”, which “soluble on expression in E. coli” value is on record?
Its value is “soluble”.

With “MAHVVVLGAGLGGSIMAYELHQQLRSEDRITVVTRDPTYHFVPSNPWVAVGWRTRSHISADLAPTMQRLGIAFRTVPATRLVPAENRVELADGTALDYDYLVVATGPELAFDEIEGFGPEGHTQSICHVDHAEAAHAAFERFCENPGPIVVGAAQGASCFGPAYEFAFILDAALRRRRIRDRVPMTFVTSEPYIGHLGLDGVGDTKGLLESALRSRHIKWITSARISRVEAGTMHVEEVAEGGATKPHALPFGYAMMLPAFRGVKAVSGIEGLSNPRGFTLVDPHQRNPTFPNIFAVGVCVAIPPMGVTPVPVGVPKTGFMIESMVTATAHNIGALVRGKEPDEVATWNAVCLADFGDRGIAFIAQPQIPPRNVNWSAEGRWVHFAKIAFEKYFLRKVKLGTAEPLYEWAAMKMLGIDKLKAARKGLEHHHHHH” as the sequence, how does the “soluble on expression in E. coli” value read?
The value was “not soluble”.

With “SKKTVEFVDYVNPLMGTESTFAFSHGNTYPAVAVPWGMNFWSPQTGENGSGWMYTYTDSLMRGFRQTHQPSPWINDYGTFSIMPLAGELKMSHKERLVPFSHQQEKATPYNYSVTFNNGLQTSLSATSRGAVFEVSFPEKEDQYVVVDAYNGGSSITIEPEKRLVKGATRYNNGGVPDNFANYFMMEFSHPVIEYGTYNGDTLLHHQTDVAADYTCAYLKFDVPAGEKLTIRTASSFISPEQAAINFNREVADADVQLISGKAREQWNNYLGRVEAEGGTDEQLRTFYSCLYRTLLFPREFYEFDSQGNPVYYSPYDGNVHDGYMYTDNGFWDTFRAVHPLFTLLYPEVSERVTQSIINAYNESGFMPEWASPGHRGCMIGNNSVSLLVDAWMKGIQTVDAEKALEAMIHQTQARHAEIASVGRDGFEYYDKLGYVPYPEVPEATAKTLEYAYADWCIARFAESLGKQDIADQYYQKAPNYRNLYYPEHGFMWTKDAKGNWRDRFDATEWGGPFTEGSSWHWTWSVFHDPEGLSELMGGHEPMIARLDSMFVAPNTYNYGTYGFVIHEIAEMVALNMGQYAHGNQPVQHAIYLYDYIGQPWKTQYHLRNVMDKLYNSGSKGYCGDEDNGQTSAWYVFSAMGFYPVCPGMPEYAIGSPLFKKVTLHLPEGKNFVVSAADNAADRPYIRKALLNGQEFTRNYLTHDELKQGGELNLSMDSVPNQQRGTQPADFPYSYSK” as the sequence, how does the “soluble on expression in E. coli” value read?
Its value is “soluble”.

Which “soluble on expression in E. coli” value does the source give for “MIKRNLLVMGLAVLLSACGFQLRGTGTQELSIKELDLSARDAYGTTIKMLKQQLESSGVRVHAGAPYKLVLLSEENSQRTLSYTGGGNSAEYEIGTTLRYEILTHDNLHLLDDKLEVQKVFLHDGNNITGSDQESSETRKEMRRDLIQRMLIRLQLLTPEQLAQLQATAEAKAKAEADALEAARKAEAETPQQSPMELPNQLEHHHHHH” here?
Its value is “soluble”.

For “ELEPGAFSELYQRYRHCDAPICLYEQGRDSFEDEGRWRLILCATCGSHGTHRDCSSLRPNSKKWECNECLPA”, which “soluble on expression in E. coli” value is on record?
The value was “soluble”.

With “VELPTEYTEQFSSQPTLNSKPIIKFEFTGNSVDAPVLSMASKKFGIDFSILMSQIDYAGGVKFGFVIAEVEGDGEAITAAKCYLINNNVKVEVLGYVG” as the sequence, how does the “soluble on expression in E. coli” value read?
The value was “not soluble”.
